Starred links: 1 amine or outer side, 2 acyl side, 3 side chain; linkers in the order of their positions; H or OH if unused. Positions of bridges follow the written chain, without caps; N, C: chain ends. No end group written: not given here. *: point of attachment. TBMB = c1c(C[*:1])cc(C[*:3])cc1C[*:2]; Myristyl = CCCCCCCCCCCCCC*
Tests used:
importin-α1 (IMPα1) [1] = molecular target: T1, importin-α1 (IMPα1) (human, UniProt P52292 2-529); assay: DUOLINK proximity ligation in permeabilised MDA-MB-231 cells; loss of the PDL1-Ac:IMPα1 complex, DL-2 10 to 0.00975 µM
importin-α1 (IMPα1) [2] = molecular target: T1, importin-α1 (IMPα1); assay: DUOLINK proximity ligation; IC50 of DL-2-NP against IC50 of naked DL-2 for the PDL1:IMPα1 complex
importin-α1 (IMPα1) [3] = molecular target: T1, importin-α1 (IMPα1); assay: DUOLINK proximity ligation in permeabilised MDA-MB-231 cells; loss of the PDL1:IMPα1 complex, DL-2-NP 10 to 0.3 nM

IC50 (importin-α1 (IMPα1) [1]) [nM]	fold more potent than DL-2 (importin-α1 (IMPα1) [2]) [fold]	IC50 (importin-α1 (IMPα1) [3]) [nM]	Binder
39	–	–	Myristyl-ACLTFIFCRLRKGRCMMDVKK (linker 2-8-15 via TBMB, also called DL-2-TBMB; DL-2-Batch 1) [DL-2 bicyclic peptide (Myristyl-ACLTFIFCRLRKGRCMMDVKK on TBMB scaffold)]
–	~39	1	ACLTFIFCRLRKGRCMMDVKK (N-terminal myristyl; cysteines covalently bound to the TBMB scaffold (bicyclic); peptide packaged in a POPC / cholesterol / DSPE-PEG lipid nanoparticle, Same peptide as DL-2, in a different formulation; also called DL-2-NP) [DL-2 nanoparticle (DL-2 bicyclic peptide encapsulated in a lipid nanoparticle)]
